# Results taken from article doi:10.1101/2025.07.29.667502, “Single-Molecule FRET Reveals Two T4 Phage MR Complex Exonuclease States Regulated by the Mre11 Dimer Interface” (bioRxiv, 2025).
# B1: T4 Mre11 (wild type) (enzyme, bacteriophage T4, UniProt P04521 1-339, looked up)
# chain: MKILNLGDWHLGVKADDEWIRGIQIDGIKQAIEYSKKNGITTWIQYGDIFDVRKAITHKTMEFAREIVQTLDDAGITLHTIVGNHDLHYKNVMHPNASTELLAKYPNVKVYDKPTTVDFDGCLIDLIPWMCEENTGEILEHIKTSSASFCVGHWELNGFYFYKGMKSHGLEPDFLKTYKEVWSGHFHTISEAANVRYIGTPWTLTAGDENDPRGFWMFDTETERTEFIPNNTTWHRRIHYPFKGKIDYKDFTNLSVRVIVTEVDKNLTKFESELEKVVHSLRVVSKIDNSVESDDSEEVEVQSLQTLMEEYINAIPDITDSDREALIQYANQLYVEATQ
# notes: Mre11 (gp47) of bacteriophage T4; Used together with WT Rad50 as the WT-MR complex; also called WT Mre11; gp47; source: E. coli BL21 (DE3), purified (chitin column)
# Molecular target: T1, T4 Rad50 (wild type) (bacteriophage T4, UniProt P04522 1-560)
# T1 construct: Rad50 (gp46) of bacteriophage T4; the introduction says that the T4 complex is purified without truncation of Rad50's coiled-coil; also called WT Rad50; gp46; source: E. coli BL21 (DE3), purified (nickel column)
# T1 sequence (looked up): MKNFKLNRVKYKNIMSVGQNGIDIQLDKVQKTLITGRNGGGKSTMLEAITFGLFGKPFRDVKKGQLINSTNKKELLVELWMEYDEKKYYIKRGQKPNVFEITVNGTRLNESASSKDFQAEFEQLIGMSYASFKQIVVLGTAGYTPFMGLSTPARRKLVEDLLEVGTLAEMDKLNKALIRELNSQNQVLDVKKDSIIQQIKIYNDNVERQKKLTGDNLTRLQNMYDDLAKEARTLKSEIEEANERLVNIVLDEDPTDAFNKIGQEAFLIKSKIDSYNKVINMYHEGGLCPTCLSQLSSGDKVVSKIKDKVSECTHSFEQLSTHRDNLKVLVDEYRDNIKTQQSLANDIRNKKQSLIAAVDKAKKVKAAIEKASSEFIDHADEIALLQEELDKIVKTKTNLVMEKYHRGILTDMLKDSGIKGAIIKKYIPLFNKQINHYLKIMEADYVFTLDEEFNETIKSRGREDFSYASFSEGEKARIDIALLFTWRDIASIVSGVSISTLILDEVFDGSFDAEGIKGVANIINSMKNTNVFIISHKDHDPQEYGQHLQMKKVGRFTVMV
# Test: negative-stain EM; WT T4-MR complex with ATPγS, in the absence of DNA
# Settings: both partners purified
binder,measurement,value
B1,binding result,binds
